Laboratory results published in article PMC8294337 (BBA advances, 2021).

Target: the molecule itself
Experiment: SDS-PAGE

B1: T74S KcsA (pH-gated potassium channel KcsA with the mutation T74S) (natural protein, UniProt P0A334 1-160, looked up)
chain: MPPMLSGLLARLVKLLLGRHGSALHWRAAGAATVLLVIVLLAGSYLAVLAERGAPGAQLITYPRALWWSVETASTVGYGDLYPVTLWGRLVAVVVMVAGITSFGLVTAALATWFVGREQERRGHFVRHSEKAAEEAYTRTTRALHERFDRLERMLDDNRR
- stoichiometry N: 4
